Reference: patent US12037382 (STICHTING VU, dated 2024)

What was measured:
[1] = molecular target: T1, US28 wild type, G protein-coupled receptor of human cytomegalovirus strain VHL/E (human cytomegalovirus strain VHL/E); test: displacement of 125I-CX3CL1 from US28-expressing HEK293T membranes by unlabeled CX3CL1
T1 construct: whole, on cells; In some assays membranes of transfected cells were used; also called US28-WT; US28 VHL/E

[2] = molecular target: T1, US28 wild type, G protein-coupled …; test: competition of unlabeled CX3CL1 against 125I-CX3CL1 on US28

B1: human chemokine CX3CL1 (ligand, UniProt P78423 25-100, looked up)
chain: QHHGVTKCNITCSKMTSKIPVALLIHYQQNQASCGKRAIILETRQHRLFCADPKEQWVKDAMQHLDRQAAALTRNG
modifications: 125I label where used as radioligand
notes: also called CX3CL1/Fractalkine
B1 was tested, and the “IC50 (read off the curve)” value [1] was roughly 300 pM and the “IC50 (read off the curve)” value [2] was roughly 100 pM.
